Assay results: article PMC10948894, “Cryo-EM structures of type IV pili complexed with nanobodies reveal immune escape mechanisms” (Nature Communications, 2024)

T1: type IV pili of the N. meningitidis 8013 pglAON* strain (SB pilin with the GATDH-Gal double sugar on S63) (Neisseria meningitidis 8013 (serogroup …, strain, GATDH with a second sugar (galactose in position 3) on serine 63))
T1 construct: numbers count on: the mature protein; also called GATDH-GLA; GATDH-GAL variant
T1 chain: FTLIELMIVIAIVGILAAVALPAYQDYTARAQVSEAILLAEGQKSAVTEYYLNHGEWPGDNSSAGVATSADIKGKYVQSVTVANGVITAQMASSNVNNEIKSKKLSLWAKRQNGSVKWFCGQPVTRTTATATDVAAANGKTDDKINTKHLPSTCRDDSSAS


Assays:
[1] = target: type IV pili of N. meningitidis 8013, SB sequence type pilin PilE with GATDH on S63 and G3P on S69 (Neisseria meningitidis); assay: cryo-EM structure; purified pili 10 µg/ml with nanobody 50 µg/ml, vitrified at 4 °C; helical refinement
[2] = target: type IV pili of N. meningitidis 8013, SB sequence type pilin PilE with GATDH on S63 and G3P on S69 (Neisseria meningitidis)
[3] = target: T1, type IV pili of the N. meningitidis …; assay: immunostaining of cells or tissue; as a1 but nanobody 5 µg/ml and anti-His tag 17.5 µg/ml (experiments with C24_S112-114G, Fig. 7f and g); conditions: one partner purified

| Binder | stoichiometry N [1] | inhibition of type IV pili-dependent bacterial auto-aggregation (blocks the pilus-pilus interaction, m1 with m1); indicated amounts of nanobody, Fig. 3c [2] [µg/mL] | binding result [3] |
| --- | --- | --- | --- |
| F10 nanobody (VHH) VHH: QLQLVESGGGLVQPGGSLRLSCAASGFTLDQYAIGWFRQAPGKEREGVSCISSRGGATNYAHSVKGRFTISRDNAKNTVYLQMNSLKPEDTAVYYCAAGVYTIVTGTGPEDGMDYWGKGTLVTVSS | 1 | 5 |  |
| C24 nanobody (VHH) VHH: QLQLVESGGGLVQPGGSLRLSCASSGFRSDYYAIVWFRQAPGKEREGVSCISTSGKTTIYADSVKGRFTISRDNAKNTVYLQMNSLKPEDTAVYYCAADFRGSRLSDVCSYSSMDYWGKGTLATVSS | 1 | 5 |  |
| C24_S112-114G nanobody (VHH, as the chain of m8 (C24) with the two stated changes; also called C24 S112G S114G double mutant; source: E. coli BL21 (DE3)/pLysS (plasmid pET26b-C24 mutated), purified; not shown: His tag, C-terminal, kept) VHH: QLQLVESGGGLVQPGGSLRLSCASSGFRSDYYAIVWFRQAPGKEREGVSCISTSGKTTIYADSVKGRFTISRDNAKNTVYLQMNSLKPEDTAVYYCAADFRGSRLSDVCGYGSMDYWGKGTLATVSS |  |  | binds |
